PMC8835842, “YdfD, a Lysis Protein of the Qin Prophage, Is a Specific Inhibitor of the IspG-Catalyzed Step in the MEP Pathway of Escherichia coli” (International Journal of Molecular Sciences, 2022)

B1: YdfD (MBP tag cleaved) (natural protein, E. coli BL21(DE3), UniProt P29010 1-63, looked up)
chain: MNSAFVLVLTVFLVSGEPVDIAVSVHRTMQECMTAATEQKIPGNCYPVDKVIHQDNIEIPAGL
notes: YdfD, lysis protein of the Qin cryptic prophage, 63 amino acids; ydfD amplified from the E. coli BL21(DE3) genome; No truncation is told for this construct; source: E. coli BL21(DE3), purified as MBP-YdfD (amylose resin), MBP cleaved by PreScission protease; not shown: MBP, N-terminal, cleaved
B2: IspG-His (enzyme, E. coli BL21(DE3), UniProt P62620 1-372, looked up)
chain: MHNQAPIQRRKSTRIYVGNVPIGDGAPIAVQSMTNTRTTDVEATVNQIKALERVGADIVRVSVPTMDAAEAFKLIKQQVNVPLVADIHFDYRIALKVAEYGVDCLRINPGNIGNEERIRMVVDCARDKNIPIRIGVNAGSLEKDLQEKYGEPTPQALLESAMRHVDHLDRLNFDQFKVSVKASDVFLAVESYRLLAKQIDQPLHLGITEAGGARSGAVKSAIGLGLLLSEGIGDTLRVSLAADPVEEIKVGFDILKSLRIRSRGINFIACPTCSRQEFDVIGTVNALEQRLEDIITPMDVSIIGCVVNGPGEALVSTLGVTGGNKKSGLYEDGVRKDRLDNNDMIDQLEARIRAKASQLDEARRIDVQQVEK
notes: ispG amplified from the E. coli BL21(DE3) genome; also called His-tagged ispG; GcpE; source: E. coli BL21(DE3); coexpressed with YdfD constructs, in lysate; and purified (Ni-NTA, Superdex 200)

Assays:
[1] = target: B2; test: ITC; IspG (1.1 mM) injected into YdfD in the cell, 2 μL injections at 120 s spacing, 25 °C, 20 mM Tris, 150 mM NaCl, pH 8.0; one-site binding fit; conditions: both partners purified
[2] = target: B1; test: as above; conditions: both partners purified

Binder | Kd [1] | dH [2] | stoichiometry N [2]
B1 | 18.4 µM |  | 
B2 |  | 1.57 kcal/mol | 0.63
